Article PMC12583987, “Impact of Hanks Kinase‐Dependent Phosphorylation of CodY on the Physiology and Virulence in Bacillus cereus” (MicrobiologyOpen, 2025)

What was measured:
Assay in all cases: SEC; Superdex 75 column on an Akta Purifier, PBS 1x, 0.5 mL/min; 75 uL (about 150 ug) of each purified protein loaded individually; column calibrated with a low molecular weight kit; oligomer size from the elution volume
[1] = molecular target: CodY-S215D (Bacillus cereus ATCC 14579), N-terminal (His)6-tagged (Bacillus cereus ATCC 14579) (UniProt Q819X8)
[2] = molecular target: CodY-S215A (Bacillus cereus ATCC 14579), N-terminal (His)6-tagged (Bacillus cereus ATCC 14579) (UniProt Q819X8)
[3] = molecular target: the molecule itself

Molecule: CodY-S215D (Bacillus cereus ATCC 14579), N-terminal (His)6-tagged (from UniProt Q819X8 1-259) (natural protein)
- stoichiometry N [1]: 2

Molecule: CodY-S215A (Bacillus cereus ATCC 14579), N-terminal (His)6-tagged (from UniProt Q819X8 1-259) (natural protein)
- stoichiometry N [2]: 2

B1: CodY (Bacillus cereus ATCC 14579), N-terminal (His)6-tagged (natural protein)
chain: MELLAKTRKLNALLQSAAGKPVNFREMSDTMCEVIEANVFVVSRRGKLLGYAIHQQIENERMKQMLAERQFPEEYTQSLFNITETSSNLDVNSAYTAFPVENRELFGQGLTTIVPIVGGGERLGTLVLARLGQEFLDDDLILAEYSSTVVGMEILREKAEEIEEEARSKAVVQMAISSLSYSELEAIEHIFEELNGTEGLLVASKIADRVGITRSVIVNALRKLESAGVIESRSLGMKGTYIKVLNDKFLQELAKLKTN
notes: CodY, global transcriptional regulator of Bacillus cereus ATCC 14579; codY PCR-amplified from the chromosome with primers SAT31 + SAT32 and cloned in pQE-30; printed monomer Mw 29.8 kDa; also called CodY WT; wild-type CodY; source: E. coli M15 [pREP4], purified (Ni-NTA, desalted on PD10)
- stoichiometry N [3]: 2
